Experimental data reported in patent US20240325495A1, “FUSION PROTEINS FOR THE TREATMENT OF DISEASE” (Bristol-Myers Squibb Company, priority 2020, published 2024).

Test system: rats
Assay: Single-dose exploratory SC study in rats
Type: in vivo

Substance: BMS-986326: recombinant fusion protein of human IL2 and extracellular domain of human CD25, (GGGS)3 linker, non-covalent self-blocking homodimer
- dose not tolerated (morbidity or death on Day 5) (male rats, single SC dose): ≥ 25 mg/kg/day
- mean AUC [0-96 h] (rats, 5 mg/kg): 501 µg·h/mL
- dose with no adverse effects observed (rats, single SC dose): 5 mg/kg
- mean AUC [0-96 h] at not tolerated doses (rats, ≥25 mg/kg/day): ≥ 2,080 μg·h/mL
